Paper doi:10.1101/2024.04.06.588283

Molecular target: MBP-PrLD (C-terminal half of FCA containing prion-like domains) (Arabidopsis)
Assay: SEC-MALS

## MBP-PrLD (C-terminal half of FCA containing prion-like domains) (domain or fragment)
  stoichiometry N: > 100 molecules
